Results from US11542488B2, “Sortase synthesized chimeric antigen receptors” (Novartis AG, priority 2014, dated 2023).

What was measured:
[1] = tested on: scFV directed to CD19 harboring a LPXTG sortase-recognition motif (scFV19); test: Sortase-mediated labeling of scFV19 with GGGK(TAMRA) peptide, reducing SDS-PAGE and fluorescent scanning; format: biochemical; settings: for calcium requirement for labeling of scFV19 with TAMRA peptide: absence or presence of 10 mM calcium
Excerpt: Characterization of the enzyme was initially done in vitro using purified proteins. As the reaction substrate, a scFV directed to CD19 (scFV19) comprising a sortase A recognition motif (LPETGG, SEQ ID NO: 21) and a His8 (SEQ ID NO: 111) purification handle at the C-terminus (also referred to herein as scFv19.LPETGG.His8 (“LPETGG” and “His8” disclosed as SEQ ID NOS 21 and 111, respectively)) was cloned, expressed, and purified. This is the same scFV19 that was used in subsequent examples to test site-specific attachment to live cells using sortase:
As a nucleophile for these test reactions fluorescently labeled peptide: GGGK(TAMRA) (KRUEGANA-001-EXP022) (SEQ ID NO:23) was synthesized and purified. The fluorophore moiety allowed for convenient monitoring of the reaction by SDS-PAGE followed by fluorescent scanning.
The activities of mutant and wild-type (SrtA aureus_His6SrtA26-206 (“His6” disclosed as SEQ ID NO: 110)) sortases were compared side-by-side in the absence or presence of 10 mM calcium in 50 mM Tris-Cl, pH 7.4, 150 mM NaCl buffer, using final concentrations of 40 μM sortase, 20 μM scFV.LPETG.His8 (“LPETG” and “His8” disclosed as SEQ ID NOS 112 and 111, respectively), and 1 mM GGGK(TAMRA) (SEQ ID NO:23). The reactions were incubated at 37° for different periods of time (as indicated in FIG. 2), and analyzed by reducing SDS-PAGE followed by fluorescent scanning (using a ChemiDoc gel imaging system from BioRad) and coomassie staining.
The activity of mutant sortase A was active in culture media (RMPI supplemented with 1% FBS) was determined using the same reaction conditions as in Example 2. The presence of the fluorescent bands indicates the successful coupling of scFv19 to the TAMRA-labeled peptide in the presence of cell culture media. […] As in Example 2, the reaction was complete upon 45′ incubation at 37° C. (FIG. 3). […]

[2] = target: T1, CD19 (Homo sapiens, UniProt P15391); test: Flow cytometry labeling of K562 cells with scFV19 conjugated to TAMRA; format: binding
T1 construct: expressed in transfected cells; host or cells: K562
T1 sequence (P15391 20-556): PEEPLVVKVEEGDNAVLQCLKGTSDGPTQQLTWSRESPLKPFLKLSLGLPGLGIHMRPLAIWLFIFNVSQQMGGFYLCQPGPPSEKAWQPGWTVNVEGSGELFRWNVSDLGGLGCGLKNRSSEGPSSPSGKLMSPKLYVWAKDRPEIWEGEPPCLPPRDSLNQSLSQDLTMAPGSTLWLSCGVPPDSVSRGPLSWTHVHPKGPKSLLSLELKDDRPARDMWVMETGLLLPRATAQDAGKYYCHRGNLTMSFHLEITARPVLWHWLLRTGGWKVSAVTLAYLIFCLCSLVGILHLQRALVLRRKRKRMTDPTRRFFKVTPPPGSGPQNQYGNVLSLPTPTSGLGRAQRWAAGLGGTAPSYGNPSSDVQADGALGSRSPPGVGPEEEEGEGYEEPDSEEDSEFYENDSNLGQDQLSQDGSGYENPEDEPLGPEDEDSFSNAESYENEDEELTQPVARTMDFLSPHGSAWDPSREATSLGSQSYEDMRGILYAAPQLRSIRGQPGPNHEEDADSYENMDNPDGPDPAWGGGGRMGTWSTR
Excerpt: As a control, scFV19 subjected to the same reaction conditions to label the scFV with TAMRA, but omitting sortase (scFV19.LPETG+TAMRA_not conjugated (SEQ ID NO: 112)) was used. Flow cytometry analysis comparing cell labeling is shown.
To determine whether the presence of the sortase-recognition motif interferes with the ability of the scFV19 to recognize CD19, the scFV19.LPETGG.His8 (“LPETGG” and “His8” disclosed as SEQ ID NOS 21 and 111, respectively) was labeled with the G3K(TAMRA) peptide (SEQ ID NO:23) using the mutant sortase A as described in Example 1. […] Upon reaction, each of the preparations were filtered through a desalting column to remove unreacted G3K(TAMRA) peptide (SEQ ID NO: 23). Different concentrations of the scFV19.LPETG3K(TAMRA) conjugate (“LPETG3K” disclosed as SEQ ID NO: 250) and unconjugated control were then used to label untransduced K562 cells or K562 overexpressing CD19. […] Thus, the results presented herein confirm that the scFV19.LPETGG.His8 substrate (“LPETGG” and “His8” disclosed as SEQ ID NOS 21 and 111, respectively) for sortase is functional and that the sortase labeling strategy can be used to create new tools for FACS staining.

[3] = 40 μM sortase, 20 μM scFV, 1 mM GGGK(TAMRA), 37°

B1: mutant sortase A: S. aureus Sortase A mutant lacking the N-terminal 59 amino acids, calcium independent and faster (SEQ ID NO: 4) (protein)
chain: MQAKPQIPKDKSKVAGYIEIPDADIKEPVYPGPATREQLNRGVSFAKENQSLDDQNISIAGHTFIDRPNYQFTNLKAAKKGSMVYFKVGNETRKYKMTSIRNVKPTAVEVLDEQKGKDKQLTLITCDDYNEETGVWETRKIFVATEVKLEHHHHHH
- incubation time at which fluorescence was demonstrated [1, 3]: ≤ 15 min
- time to same labeling proportion with three-fold higher enzyme concentration ([1]; 120 μM versus 40 μM sortase): half of the time
- incubation time for complete labeling of scFV19 with TAMRA peptide ([1]; 50 mM Tris-Cl, pH 7.4, 150 mM NaCl buffer, 37° C.): 45 ′
- reaction speed compared with wild-type sortase ([1]; 37°): faster
- specificity: serum proteins labeled with fluorophore ([1]; RPMI + 1% FBS): no proteins from the serum
- activity in culture media ([1]; RPMI supplemented with 1% FBS): active
- calcium requirement for labeling of scFV19 with TAMRA peptide [1, 3]: regardless of whether calcium was present
- fluorescence compared to reactions containing wild-type sortase ([1]; all three timepoints): Increased fluorescence
- incubation time for complete reaction ([1]; culture media (RPMI + 1% FBS), 37° C.): 45 ′
- labeling differences between reactions in buffer or in culture media ([1]; reaction kinetics and fluorescence intensity): No major labeling differences

B2: wild-type sortase: wild-type S. aureus sortase A (His6SrtA26-206) (protein, UniProt Q2FV99 26-206, looked up, fragment)
chain: KPHIDNYLHDKDKDEKIEQYDKNVKEQASKDKKQQAKPQIPKDKSKVAGYIEIPDADIKEPVYPGPATPEQLNRGVSFAEENESLDDQNISIAGHTFIDRPNYQFTNLKAAKKGSMVYFKVGNETRKYKMTSIRDVKPTDVGVLDEQKGKDKQLTLITCDDYNEKTGVWEKRKIFVATEVK
modifications: His6 tag
- fluorescence at 15 minutes of incubation [1, 3]: no fluorescence was detected
- calcium requirement for labeling of scFV19 with TAMRA peptide [1, 3]: essential

B3: scFV19.LPETG3K(TAMRA) conjugate (conjugate)
scFv: EIVMTQSPATLSLSPGERATLSCRASQDISKYLNWYQQKPGQAPRLLIYHTSRLHSGIPARFSGSGSGTDYTLTISSLQPEDFAVYFCQQGNTLPYTFGQGTKLEIKGGGGSGGGGSGGGGSQVQLQESGPGLVKPSETLSLTCTVSGVSLPDYGVSWIRQPPGKGLEWIGVIWGSETTYYSSSLKSRVTISKDNSKNQVSLKLSSVTAADTAVYYCAKHYYYGGSYAMDYWGQGTLVTVSSLPETGGGK
- cell labeling by flow cytometry ([2]; untransduced K562 cells or K562 overexpressing CD19, 30 min at 4° C., control reaction without sortase): cell labeling was observed only with the conjugate and only on K562 cells expressing CD19

B4: scFV19.LPETGG.His8: scFV directed to CD19 comprising a sortase A recognition motif (LPETGG) and a His8 handle at the C-terminus (SEQ ID NO: 22) (protein)
scFv: METDTLLLWVLLLWVPGSTGEIVMTQSPATLSLSPGERATLSCRASQDISKYLNWYQQKPGQAPRLLIYHTSRLHSGIPARFSGSGSGTDYTLTISSLQPEDFAVYFCQQGNTLPYTFGQGTKLEIKGGGGSGGGGSGGGGSQVQLQESGPGLVKPSETLSLTCTVSGVSLPDYGVSWIRQPPGKGLEWIGVIWGSETTYYSSSLKSRVTISKDNSKNQVSLKLSSVTAADTAVYYCAKHYYYGGSYAMDYWGQGTLVTVSSLPETGGLDVLFEGPHHHHHHHH
modifications: C-terminal LPETGG sortase motif and His8 tag
- functionality of scFV19 carrying the sortase-recognition motif (recognition of CD19) ([2]; K562 cells expressing CD19): functional
